B1: 3G10 scFv-Fc (Fc fusion)
chain: EVQLQQSGPELVKPGASVKMSCKASGYTFATYNMHWVKQTTGQGLEWIGAIYPDNGDTFYNRKFKDKATLTADKSSTTAYMQLSSLTSEDSAVYYCARGDFAYWGQGTLVTVSAGGGGSGGGGSGGGGSDVLMTQSPASLSASVGETVTITCGASENIYGALNWYQRKQGKSPQLLIYGATNLADGMSSRFSGSGSGRQYSLKISSLHPDDVATYYCQNVLSTPYTFGGGTKLEMKESKYGPPCPPCPAPEAAGGPSVFLFPPKPKDTLMISRTPEVTCVVVDVSQEDPEVQFNWYVDGVEVHNAKTKPREEQFNSTYRVVSVLTVLHQDWLNGKEYKCKVSNKGLPSSIEKTISKAKGQPREPQVYTLPPSQEEMTKNQVSLTCLVKGFYPSDIAVEWESNGQPENNYKTTPPVLDSDGSFFLYSKLTVDKSRWQEGNVFSCSVMHEALHNHYTQKSLSLSLG
notes: scFv-Fc dimer
B2: 3E1 scFv displayed on phage (scFv)
scFv: QVQLQQPGAEVVKPGASVKMSCKASGYTFTDYYIHWVKQTPGQGLEWIGAIYPDNGDTSYNQKFKVKATLTADKSSSTAYMQLSSLTSEDSAVYYCARAFTYWGQGTLVTVSAGGGGSGGGGSGGGGSDILITQSPASLSASVGETVTITCGASENIYGALNWYQRKQGKSPQLLIYGATNLADGMSSRFSGSGSGRQYSLKISSLHPDDVATYYCQNVLSTPYTFGGGTKLEIK
B3: 1D7 scFv displayed on phage (scFv)
scFv: QIQLQQSGAELVKPGASVKMSCKASGYTFRYYNMHWVKRTPGQGLEWIGLIYPDNGDTSYNQKFKGKATLTADTSSSTAYMQLSSLTSEDSAVYYCARGGLDYWGQGTSLTVSSGGGGSGGGGSGGGGSDIQMTQSPSSMSASLGDRITITCQATQDIVKNLNWYQQKPGKPPSFLIYYATELAEGVPSRFSGSGSGSDYSLTISNLESEDFADYYCLQFYEFPLTFGAGTKLELK
B4: 3C7 scFv displayed on phage (scFv)
scFv: EIQLQQSGAELVKPGASVKMSCKASGYIFRNYYIHWVKRTPGQGLEWIGAIYPDNGDTSYNQRFKVKATLTADTSSSTAYMQLSSLTSEDSAVYYCARAFTYWGQGTTLTVSSGGGGSGGGGSGGGGSDIQMIQSPASLSASVGETVTITCGASENIYGALNWYQRKQGKSPQLLIYGATNLADGMSSRFSGSGSGRQYSLKISSLHPDDVATYYCQNVLSTPYTFGGGTKLEIK
B5: 3B7 scFv displayed on phage (scFv)
scFv: EVQLQQSGAELVKPGASVKMSCKASGYTFRYYNMHWVKRTPGQGLEWIGLIYPDNGDTSYNQKFKGKATLTADTSSSTAYMQLSSLTSEDSAVYYCARGGFDYWGQGTTLTVSSGGGGSGGGGSGGGGSDIQMTQSPASLSASVGETVTITCGASENIYGALNWYQRKQGKSPQLLIYGATNLADGMSSRFSGSGSGRQYSLKISSLHPDDVATYYCQNVLSTPYTFGGGTKLELK
B6: 3C9 scFv displayed on phage (scFv)
scFv: B5 scFv with V2I, T28I, F101L, T134I, L235I
B7: 3F5 scFv displayed on phage (scFv)
scFv: B5 scFv with V2I, F101L, Q132V, M133L, L235I
B8: 3E3 scFv displayed on phage (scFv)
scFv: QVQLQQPGAVLVKPGASVRMSCKASGYTFPYYNVHWVKRTPGQGLEWIGLIYPDNGDTSYNQKFTGKATLTADTSSSTAYMQLSSLTSEDSAVYYCARGGLDYWGQGTTLTVSAGGGGSGGGGSGGGGSDVQITQSPASLSASVGETVTITCGASENIYGALNWYQRKQGKSPQLLIYGATNLADGMSSRFSGSGSGRQYSLKISSLHPDDVATYYCQNVLSTPYTFGGGTKLEIK
B9: 3F10 scFv displayed on phage (scFv)
scFv: B5 scFv with R30S, Y31F, M34I, K38R, R39Q, G66A, T74K, I131V, Q132L, L235I
B10: 3B4 scFv displayed on phage (scFv)
scFv: B5 scFv with E10D, R30S, K38R, F101L, T134I, L140M, L235M
B11: 1B8 scFv displayed on phage (scFv)
scFv: QIQLQQSGAELVKPGASVKMSCKASGYTFASYNLHWVKQTPGQGLEWIGLIYPENGDTSYNQKFKGKATLTADTSSTTAYIQLSSLTSEDSAVYFCARGGFDYWGQGTSLTVSSGGGGSGGGGSGGGGSDIKMTQSPASLSASVGETVTITCGASENIYGALNWYQRKQGKSPQLLIYGATNLADGMSSRFSGSGSGRQYSLKISSLHPDDVATYYCQNVLSTPYTFGGGTKLEIK
B12: 2B2 scFv displayed on phage (scFv)
scFv: QLQLQQSGAELVKPGASVKMSCKASGYTFASYNLHWVKQTPGQGLEWIGLIYPENGDTSYNQKFKDKATLTADKSSTTAYIQLSSLASEDSAVYFCARGGFDYWGQGTTLTVSSGGGGSGGGGSGGGGSDIVMTQSQKFMSTSVGDRVSVTCKASQNVGTNVAWYQQKPGQSPKALIYSASYRYSGVPDRFTGSGSGTDYTLTISSVQAEDLALYYCQQHYSTPYTFGGGTKLELK
B13: 1G6 scFv displayed on phage (scFv)
scFv: EIQLQQSGAELVKPGASVKMSCKASGYTFRYYNMHWVKRTPGQGLEWIGLIYPDNGDTSYNQKFKGKATLTADTSSSTAYMQLSSLTSEDSAVYYCARGGLDYWGQGTSLTVSSGGGGSGGGGSGGGGSNIVMTQSHKFMSTSVGDRVSITCKASQDVNTDVAWYQQKPGQSPKLLIYSASYRYTGVPTRFTGSGSGTDFTFTISGVQAEDLADYYCQQHYNTPYTFGGGTKLELK
B14: 3G10 scFv displayed on phage (scFv)
scFv: EVQLQQSGPELVKPGASVKMSCKASGYTFATYNMHWVKQTTGQGLEWIGAIYPDNGDTFYNRKFKDKATLTADKSSTTAYMQLSSLTSEDSAVYYCARGDFAYWGQGTLVTVSAGGGGSGGGGSGGGGSDVLMTQSPASLSASVGETVTITCGASENIYGALNWYQRKQGKSPQLLIYGATNLADGMSSRFSGSGSGRQYSLKISSLHPDDVATYYCQNVLSTPYTFGGGTKLEMK
B15: 3E2 scFv displayed on phage (scFv)
scFv: EIQLQQSGAELVKPGASVKMSCKASGYTFSFYNMHWVKRTPGQGLEWIGLIYPDNGDTSYNQKFKGKATLTADTSSSTAYMQLSSLTSEDSAVYYCARGGLDYWGQGTSLTVSSGGGGSGGGGSGGGGSNIVMTQSQKFMSTSVGDRVSVTCKASQNVGTNVAWYQQKPGQSPKALIYSASYRYTGVPDRFTGSGSGTDFTFTISSVQAEDLAVYYCQQHYSTPYTFGGGTKLEIK
B16: 3F11 scFv displayed on phage (scFv)
scFv: QVQLQQSGAELVKPGASVKMSCKASGYTFAPYNIHWVRQTPGQGLEWIGLIYPDNGDTSYNQKFKAKATLTADKSSSTAYMQLSSLTSEDSAVYYCARGGFDYWGQGTSLTVSSGGGGSGGGGSGGGGSDIVMTQSQKFMSTSVGDRVSVTCKASQNVGTNVAWYQQKPGQSPKALIYSASYRYSGVPDRFTGSGSGTDFTLTISNVQSEDLAEYFCQQHYSTPFTFGSGTKLEIK
B17: 3A3 scFv displayed on phage (scFv)
scFv: QVQLQQSGAELVKPGASVKMSCKASGYTFTTYNIHWVRQTPGQGLEWIGLIYPDNGDTSYNQKFKAKATLTADKSSSTAYMHLSSLTSEDSAVYYCARGGFDYWGQGTTLTVSSGGGGSGGGGSGGGGSDIVMTQSHKFMSTSVGDRVSITCKASQDVNTDVSWYQQKPGQSPKLLIYSASYRYTGVPTRFTGSGSGTDFTFTISGVQAEDLADYYCQQHYNTPYTFGGGTRLEIK

For orientation: Kd means the concentration at which binding is half-saturated. By koff is commonly meant the rate constant with which the complex falls apart. One may read the kon as a measure of how fast the partners come together. A word on the EC50: it is the concentration at which the effect is half-maximal.

Changes are numbered by the printed parent chain.

T4 sequence (P21802 other isoform, or with tags, fused parts or gaps): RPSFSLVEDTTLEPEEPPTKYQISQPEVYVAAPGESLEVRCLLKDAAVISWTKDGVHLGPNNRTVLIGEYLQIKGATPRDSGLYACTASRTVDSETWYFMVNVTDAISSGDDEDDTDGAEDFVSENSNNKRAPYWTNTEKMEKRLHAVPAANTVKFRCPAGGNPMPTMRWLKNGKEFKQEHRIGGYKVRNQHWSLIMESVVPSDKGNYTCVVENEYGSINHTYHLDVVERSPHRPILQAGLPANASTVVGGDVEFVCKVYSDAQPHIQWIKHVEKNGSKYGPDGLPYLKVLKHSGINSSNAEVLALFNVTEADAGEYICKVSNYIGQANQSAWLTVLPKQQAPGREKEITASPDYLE

One test deals with T1, FGFR2c (acro) (UniProt P21802 22-377). Put plainly: ELISA.
T1 sequence (P21802 22-377): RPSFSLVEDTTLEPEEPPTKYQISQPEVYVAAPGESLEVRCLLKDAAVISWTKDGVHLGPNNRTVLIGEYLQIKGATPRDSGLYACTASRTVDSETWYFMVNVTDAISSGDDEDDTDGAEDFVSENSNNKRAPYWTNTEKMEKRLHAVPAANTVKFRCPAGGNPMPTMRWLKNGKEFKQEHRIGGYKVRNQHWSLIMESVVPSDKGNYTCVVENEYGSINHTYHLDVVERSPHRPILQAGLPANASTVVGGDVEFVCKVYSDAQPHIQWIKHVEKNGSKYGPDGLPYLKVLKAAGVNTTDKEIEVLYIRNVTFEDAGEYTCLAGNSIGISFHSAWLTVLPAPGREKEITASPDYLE
With B1, the binding result was “no binding (tested: 10 µg/mL)”.

The target in a further test is T2, extracellular domain of FGFR2c protein (Example 1) (UniProt P21802 22-377).
T2 construct: extracellular domain
T2 sequence (P21802 22-377): as above
The test is described as follows: phage ELISA. On the technique in general: An ELISA detects its analyte on a solid surface through an enzyme-linked reagent.
Regarding B2, the binding result is “no binding”.

With B3, the binding result is listed as “no binding”.

As for B4, the binding result was “no binding”.

For B5, the binding result is given as “no binding”.

For B6, the binding result is listed as “no binding”.

Take B7: the binding result was “no binding”.

As to B8, the binding result is recorded as “no binding”.

Regarding B9, the binding result is given as “no binding”.

For the molecule B10, the binding result is “no binding”.

With B11, the binding result is “no binding”.

Regarding B12, the binding result is “no binding”.

With B13, the binding result was “no binding”.

As to B14, the binding result is listed as “no binding”.

Consider B15, for which the binding result is on record as “no binding”.

With B16, the binding result is on record as “no binding”.

In the case of B17, the binding result is “no binding”.

In another test the target is T2, extracellular domain of FGFR2c protein …. Put plainly: phage ELISA. This is another data set of the same source.
On to B2, for which the “OD (450 nm) value” turned out to be 0.056.

With B3, the “OD (450 nm) value” worked out at 0.059.

Turning to B4, the “OD (450 nm) value” came to 0.04.

In the case of B5, the “OD (450 nm) value” is 0.043.

For B6, the “OD (450 nm) value” stood at 0.033.

Regarding B7, the “OD (450 nm) value” came to 0.038.

Regarding B8, the “OD (450 nm) value” stood at 0.033.

As for B9, the “OD (450 nm) value” was 0.039.

As to B10, the “OD (450 nm) value” is 0.042.

As for B11, the “OD (450 nm) value” came to 0.082.

For the molecule B12, the “OD (450 nm) value” was 0.051.

As for B13, the “OD (450 nm) value” came out at 0.073.

In the case of B14, the “OD (450 nm) value” was 0.042.

Consider B15, for which the “OD (450 nm) value” was determined as 0.036.

Regarding B16, the “OD (450 nm) value” was 0.045.

Take B17: the “OD (450 nm) value” is 0.05.

The next test concerns the target T3, recombinant cynomolgus monkey FGFR2b (cynomolgus monkey).
T3 construct: extracellular domain; bought; also called cynomolgus macaque FGFR2b
The test is described as follows: ELISA, antibody 1ug/mL.
Turning to B1, the “OD (450 nm) value” was found to be 3.12.

The target of the next test is T1, FGFR2c (acro). Put plainly: ELISA, antibody 10 µg/mL.
B1: the “OD (450 nm) value” amounted to 0.096.

The next test has as its target T4, human FGFR2b (Kaixia Biotechnology, catalog number FGR-HM1BB) (human, UniProt P21802-3 22-378).
T4 construct: extracellular domain; bought; also called hFGFR2b; human FGFR2b protein
The test is described as follows: BLI, antibody on AHC2 sensor. Background: Biolayer interferometry detects binding as a change in optical thickness at a sensor tip.
For the molecule B1, the affinity, expressed as Kd, was 6.25 nM; the koff came out at 0.00199 s⁻¹; the kon stood at 318000 M⁻¹ s⁻¹.

For another test, the target named is T5, FGFR2b on KATO III cells (human, UniProt P21802-3 22-822).
T5 construct: whole, on cells; also called KATO III cells that overexpress FGFR2b
T5 sequence (P21802 other isoform, or with tags, fused parts or gaps): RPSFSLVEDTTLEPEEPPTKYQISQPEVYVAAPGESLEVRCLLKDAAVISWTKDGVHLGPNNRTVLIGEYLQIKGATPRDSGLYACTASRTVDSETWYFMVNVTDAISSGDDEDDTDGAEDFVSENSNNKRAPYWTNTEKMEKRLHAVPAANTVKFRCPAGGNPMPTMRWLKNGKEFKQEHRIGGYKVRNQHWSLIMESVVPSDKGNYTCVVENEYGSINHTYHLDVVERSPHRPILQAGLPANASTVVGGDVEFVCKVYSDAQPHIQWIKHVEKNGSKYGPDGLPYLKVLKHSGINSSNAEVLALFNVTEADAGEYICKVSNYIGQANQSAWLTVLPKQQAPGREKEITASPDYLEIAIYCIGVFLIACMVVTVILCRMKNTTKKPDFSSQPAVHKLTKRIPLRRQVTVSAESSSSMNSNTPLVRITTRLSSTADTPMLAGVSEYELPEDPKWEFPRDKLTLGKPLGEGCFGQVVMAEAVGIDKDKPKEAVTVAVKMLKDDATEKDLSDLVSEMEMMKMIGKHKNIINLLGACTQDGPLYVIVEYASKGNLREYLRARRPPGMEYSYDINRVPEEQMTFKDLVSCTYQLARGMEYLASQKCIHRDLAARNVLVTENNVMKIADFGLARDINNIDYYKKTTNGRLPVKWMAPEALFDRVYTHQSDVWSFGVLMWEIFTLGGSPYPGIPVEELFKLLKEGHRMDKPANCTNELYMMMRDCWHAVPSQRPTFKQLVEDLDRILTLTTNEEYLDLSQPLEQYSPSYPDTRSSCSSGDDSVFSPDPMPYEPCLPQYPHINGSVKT
The test is described as follows: flow cytometry, KATO III cells. In general terms: In flow cytometry, cells or beads pass a laser one at a time.
Turning to B1, the EC50 worked out at 0.149 µg/mL.

The next test deals with T4, human FGFR2b (Kaixia Biotechnology, …). The test is described as follows: ELISA, FGFR2b coated at 1 µg/ml.
B1 showed an EC50 of 0.0276 µg/mL.

The values above are taken from patent EP4714976A1 (Sunshine Lake Pharma Co., Ltd., dated 2026).
